Measured values reported in US20250026841A1 (AP BIOSCIENCES, published 2025).
Where two headings read alike, the source gives them in different places.

T1: CD73 (antigen of the CD73 ELISA) (UniProt P21589 27-547, limits assumed)
T1 construct: the ELISA antigen is not described
T1 sequence (looked up): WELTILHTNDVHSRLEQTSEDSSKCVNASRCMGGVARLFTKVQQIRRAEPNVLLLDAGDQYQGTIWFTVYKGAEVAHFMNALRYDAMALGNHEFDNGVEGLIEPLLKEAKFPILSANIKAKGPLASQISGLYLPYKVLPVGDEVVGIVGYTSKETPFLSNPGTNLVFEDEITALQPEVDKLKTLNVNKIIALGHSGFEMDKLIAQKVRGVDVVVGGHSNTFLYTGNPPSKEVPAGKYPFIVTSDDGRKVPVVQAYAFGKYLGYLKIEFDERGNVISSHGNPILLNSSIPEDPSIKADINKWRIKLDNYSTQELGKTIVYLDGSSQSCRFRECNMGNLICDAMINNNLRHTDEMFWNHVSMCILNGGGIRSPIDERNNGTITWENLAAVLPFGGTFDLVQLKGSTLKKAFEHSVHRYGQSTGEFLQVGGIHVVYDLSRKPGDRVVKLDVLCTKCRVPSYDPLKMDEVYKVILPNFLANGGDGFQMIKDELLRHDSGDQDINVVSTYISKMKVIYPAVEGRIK

T2: CD73, cell membrane-bound (expressed by MDA-MB-231 cells) (human, UniProt P21589 27-549)
T2 construct: whole, on cells; also called CD73-expressing MDA-MB-231 breast cancer cells
T2 sequence (looked up): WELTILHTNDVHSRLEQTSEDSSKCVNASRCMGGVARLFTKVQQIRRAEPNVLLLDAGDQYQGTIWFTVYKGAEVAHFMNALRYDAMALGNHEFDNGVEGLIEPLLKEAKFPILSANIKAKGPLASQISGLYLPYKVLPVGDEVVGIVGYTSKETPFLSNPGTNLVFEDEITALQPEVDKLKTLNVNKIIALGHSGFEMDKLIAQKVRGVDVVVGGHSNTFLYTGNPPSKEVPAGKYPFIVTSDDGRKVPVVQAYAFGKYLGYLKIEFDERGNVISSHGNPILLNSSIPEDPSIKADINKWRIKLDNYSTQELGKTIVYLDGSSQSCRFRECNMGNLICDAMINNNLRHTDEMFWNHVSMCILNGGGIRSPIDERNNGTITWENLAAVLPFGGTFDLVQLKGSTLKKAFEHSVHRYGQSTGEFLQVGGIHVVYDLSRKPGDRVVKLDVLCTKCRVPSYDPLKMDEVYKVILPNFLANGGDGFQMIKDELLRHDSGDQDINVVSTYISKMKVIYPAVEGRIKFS

T3: his-tagged human CD73 (AcroBiosystems, Cat. No. CD3-H52H7) (human, UniProt P21589 27-547)
T3 construct: Bought protein; also called hCD73-His; human CD73 antigen; not shown: His tag
T3 sequence (looked up): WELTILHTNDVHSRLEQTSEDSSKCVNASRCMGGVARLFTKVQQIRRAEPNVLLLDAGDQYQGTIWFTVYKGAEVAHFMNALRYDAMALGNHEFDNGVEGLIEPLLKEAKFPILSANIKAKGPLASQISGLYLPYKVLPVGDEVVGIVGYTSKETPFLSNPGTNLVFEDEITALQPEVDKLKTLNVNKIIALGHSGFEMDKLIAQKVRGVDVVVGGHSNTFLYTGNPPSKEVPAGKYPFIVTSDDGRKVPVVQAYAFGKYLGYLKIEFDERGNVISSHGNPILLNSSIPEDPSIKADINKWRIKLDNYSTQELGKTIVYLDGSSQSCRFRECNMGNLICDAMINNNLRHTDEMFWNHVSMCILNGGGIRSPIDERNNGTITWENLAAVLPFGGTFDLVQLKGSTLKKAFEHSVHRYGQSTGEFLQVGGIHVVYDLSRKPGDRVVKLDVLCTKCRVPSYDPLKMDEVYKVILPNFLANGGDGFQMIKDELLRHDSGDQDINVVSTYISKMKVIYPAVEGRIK

T4: soluble CD73 secreted by MDA-MB-231 cells (human, UniProt P21589 27-549, limits assumed)
T4 sequence (looked up): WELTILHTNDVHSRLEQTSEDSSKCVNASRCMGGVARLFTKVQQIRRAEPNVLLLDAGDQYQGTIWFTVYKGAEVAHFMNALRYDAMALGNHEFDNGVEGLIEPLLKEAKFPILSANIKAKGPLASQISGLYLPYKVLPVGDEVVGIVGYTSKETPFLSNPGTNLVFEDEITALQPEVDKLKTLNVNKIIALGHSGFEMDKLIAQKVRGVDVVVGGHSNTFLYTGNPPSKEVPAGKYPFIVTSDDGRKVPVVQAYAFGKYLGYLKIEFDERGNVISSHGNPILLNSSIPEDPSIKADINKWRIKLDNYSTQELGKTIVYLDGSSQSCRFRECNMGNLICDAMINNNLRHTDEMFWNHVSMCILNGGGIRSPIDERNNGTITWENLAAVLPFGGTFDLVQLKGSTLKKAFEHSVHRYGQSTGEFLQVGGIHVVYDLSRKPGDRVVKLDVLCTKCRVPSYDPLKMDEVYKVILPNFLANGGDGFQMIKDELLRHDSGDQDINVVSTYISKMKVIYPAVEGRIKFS


Columns and labels:
[1] = target: T1, CD73 (antigen of the CD73 ELISA); experiment: phage ELISA on coated CD73-flag-HIS; X-flag-HIS control bars not seen above the axis
[2] = target: T2, CD73, cell membrane-bound (expressed by …); experiment: flow cytometry, antibody 4 µg/ml on MDA-MB-231 cells, A488 anti-human IgG
Procedure: As illustrated in FIG. 15 the binding activity of anti-CD73 antibody leads was assessed by flow cytometer. MDA-MB-231 cells (1×10^5 cells) were surface stained with anti-CD73 antibody (4 μg/ml) for 30 minutes, then incubated with A488-conjugated anti-human IgG secondary antibody for 15 minutes on ice. Cells were analyzed by flow cytometer, and A488 fluorescence intensity was shown by histograms (left) and number (right table). As illustrated in FIG. 16 the blockade of CD73 enzymatic activity by anti-CD73 antibody leads was assessed. The enzymatic activity of CD73 expressed by MDA-MB-231 on the cell surface was blocked by anti-CD73 antibody leads.

[3] = target: T3, his-tagged human CD73 (AcroBiosystems, …); experiment: BLI (Octet), antibody on AHC sensor, hCD73-His 2-fold from 30 nM, 7 points
Procedure: (§1) The affinity of anti-CD73 mAbs and bsAbs were determined by biolayer interferometry analysis (ForteBIO, USA). In this method, anti-CD73 antibodies were loaded at 5 μg/mL on AHC (Anti-Human IgG Fc Capture, ForteBIO, Cat. No. 18-5060) for signal reach to approximate 0.5 nm. Sensors then were exposed to his-tagged human CD73 (AcroBiosystems, Cat. No. CD3-H52H7)-containing solutions that 2-fold serial diluted from the top concentration 30 nM for total 7 points. Measurements were performed as follows: 1 minute baseline in kinetic buffer, 5 minutes association in hCD73-His-containing solutions, and 5 minutes dissociation into kinetic buffer. The kinetic parameters were calculated and produced by Octet Data Acquisition and Analysis Software.

[4] = target: T2, CD73, cell membrane-bound (expressed by …); experiment: cell-based or functional assay
[5] = target: T4, soluble CD73 secreted by MDA-MB-231 …; experiment: cell-based or functional assay
[6] = target: T5, mouse Fc tagged human CD137 protein (AcroBiosystems, Cat #41B-H5256) (human, UniProt Q07011 24-186); experiment: BLI (Octet), hCD73-His on HIS1K sensor, antibody 100 nM, then CD137-mFc 100 nM
T5 construct: extracellular domain; Bought protein; also called CD137 extracellular domain fused with mouse Fc tag recombinant protein; human CD137 antigen
Procedure: The binding activities of the AP601 was determined by ForteBIO® (Menlo Park, Calif.) biosensor analysis. In this method, the His tagged human CD73 protein (AcroBiosystems, Cat. No. CD3-H52H7) were loaded onto HIS1K (Anti-Penta-HIS) biosensor (Cat. No. 18-5120) at 5 μg/mL for 5 minutes. Sensors then were exposed to antibody samples at 100 nM for 5 minutes follow by associating with the mouse Fc tagged human CD137 protein (AcroBiosystems, Cat. No. 41B-H5256) at 100 nM for 5 minutes. The binding chart were produced by Octet Data Acquisition and Analysis Software.

[7] = target: T3, his-tagged human CD73 (AcroBiosystems, …); experiment: biolayer interferometry; antibody captured on AHC sensor, hCD73-His as analyte
Procedure: as §1

[8] = target: T1, CD73 (antigen of the CD73 ELISA); experiment: phage ELISA on coated CD73-flag-HIS; X-flag-HIS control bars not seen above the axis; remark: listed apart in the source
[9] = target: T5, mouse Fc tagged human CD137 protein …; experiment: BLI (Octet), biotinylated p95 peptide on SA sensor, antibody 100 nM, then CD137-mFc 100 nM
Procedure: The binding activities of anti-p95HER2-CD137 bispecific antibody was determined by ForteBIO® (Menlo Park, Calif.) biosensor analysis. In this method, the custom synthesis biotinylated Her2 p95 peptide (GenScript) was loaded onto SA (Streptavidin, ForteBIO, Cat #18-5019) biosensor at 50 μg/mL for 5 minutes. Sensors then were exposed to antibody samples at 100 nM for 5 minutes follow by associating with the mouse Fc tagged human CD137 protein (AcroBiosystems, Cat #41B-H5256) at 100 nM for 5 minutes. The binding chart were produced by Octet Data Acquisition and Analysis Software.

Row | Binder | binding result [2] | Kd [3] [nM] | IC50, inhibition of cell membrane-bound CD73 enzyme (AMP-Glo, MDA-MB-231 cells) [4] [nM] | IC50, inhibition of soluble CD73 enzyme (AMP-Glo, MDA-MB-231 cultured medium) [5] [nM] | fold improvement of binding affinity against parental #3-1-28 [7] [fold] | other results
1 | anti-CD73 antibody clone 3-1-28 (antibody, human IgG1, lambda, N297A, V domains shown, also called CD73 #3-1-28; parental #3-1-28) VH: QVQLVQSGAEVKKPGSSVKVSCKASGGTFSSYAISWVRQAPGQGLEWMGRIIPILGIANYAQKFQGRVTITADKSTSTAYMELSSLRSEDTAVYYCARDSPVHYYGSGSYYRDAFDIWGQGTMVTVSS VL: not shown |  | 1.04 | 0.49 | 1.48 |  | binding result [6]: no binding (tested: 100 nM)
2 | anti-CD73 #3-1-28-v2 (antibody, human IgG1, lambda, N297A, V domains shown, also called #1911-022; anti-CD73 #3-1-28 (S107D S109H)) VH: QVQLVQSGAEVKKPGSSVKVSCKASGGTFSSYAISWVRQAPGQGLEWMGRIIPILGIANYAQKFQGRVTITADKSTSTAYMELSSLRSEDTAVYYCARDSPVHYYGDGHYYRDAFDIWGQGTMVTVSS VL: not shown |  | 0.523 | 0.245 | 0.273 | ~2 | 
3 | anti-CD73 #3-1-28-v3 (antibody, human IgG1, lambda, N297A, V domains shown, also called #1911-030; anti-CD73 #3-1-28 (S107D S109T A114S)) VH: QVQLVQSGAEVKKPGSSVKVSCKASGGTFSSYAISWVRQAPGQGLEWMGRIIPILGIANYAQKFQGRVTITADKSTSTAYMELSSLRSEDTAVYYCARDSPVHYYGDGTYYRDSFDIWGQGTMVTVSS VL: not shown |  | 0.553 |  | 0.241 | ~2 | 
4 | anti-CD73 #3-1-28-v1 (antibody, human IgG1, lambda, N297A, V domains shown, engineered IgG1 constant region; also called #1919-003; anti-CD73 #3-1-28 (S51A Q54E)) VH: QVQLVQSGAEVKKPGSSVKVSCKASGGTFSSYAISWVRQAPGQGLEWMGRIIPILGIANYAQKFQGRVTITADKSTSTAYMELSSLRSEDTAVYYCARDSPVHYYGSGSYYRDAFDIWGQGTMVTVSS VL: QSVLTQPPSASGTPGQRVIISCSGSSSNIGSNSVYWYQQLPGTAPKLLIYANNERPSGVPGRFSGSKSGTSASLAISGLRSEDEADYYCAAWDDSLRGPVFGGGTKLTVLG |  | 0.344 | 0.213 | 0.187 | ~2 | 
5 | anti-p95HER2 antibody clone R4-11 (antibody, human IgG1, kappa, V domains shown, also called p95HER2 #R4-11; #R4-11 mAb) VH: QITLKESGPTLVKPTQTLTLTCTFSGFSLSTSGVGVGWIRQPPGKALEWLALIYWDDDKRYSPSLKSRLTITKDTSKNQVVLTMTNMDPVDTATYYCAHAHPFSGSYNFWGQGTLVTVSS VL: DIVMTQSPDSLAVSLGERATINCKSSQSVLFSSNNKDYLAWYQQRPGQPPKLLIHWASTREPGVPDRFSGSGSGTDFTLTISSLQAEDVAVYYCLQSYSNPPTFGQGTKVEIKR |  |  |  |  |  | binding result [9]: no binding (tested: 100 nM)

Further lines, with some results ahead:

Row | binding result [2] | Kd [3] [nM] | IC50, inhibition of cell membrane-bound CD73 enzyme (AMP-Glo, MDA-MB-231 cells) [4] [nM] | IC50, inhibition of soluble CD73 enzyme (AMP-Glo, MDA-MB-231 cultured medium) [5] [nM] | fold improvement of binding affinity against parental #3-1-28 [7] [fold] | Binder | other results
6 | binds |  |  |  |  | CR3-16 (antibody, IgG1, V domains shown, also called anti-CD73 antibody clone 3-16) VH: QVQLVQSGAEVKKPGASVKVSCKASGYTFTDFYIHWVRQAPGQGLEWMGWINPYSGSTNYPQKFQGRVTMTRDTSISTAYMDLSSLTSDDTAVYLCVRGRWFDFDYWGQGTTVTVSS VL: QSALTQPPSVSGSPGQSITISCTGTSSDVGTYNFVSWYQQHPGKVPKLIIYDVSNRPSGVSIRFSGSKSGNTASLTISGLQAEDEADYYCSSFRSGSTYVFGTGTRVTVLG | binding result [1]: binds
7 | binds |  |  |  |  | CR3-1-37 (antibody, IgG1, V domains shown, also called anti-CD73 antibody clone 3-1-37) VH: QVQLVQSGAEVKRPGSSVKVSCKASGGTFSSYAISWVRQAPGQGLEWMGGIIPIFGTANYAQKFQGRVTITADESTSTAYMELSSLRSEDTAVYYCARGVSYYYGMHVWGQGTTVTVSS VL: SYVLTQPPSVSVTPGKTARIACGGNNLESKIVSWYQQKPGQAPVLVIFYDTDRPSGISERFSGSNSGNTATLTISRVEAGDEADYYCQVWDSNSDHVIFGGGTKLTVLG | binding result [8]: binds
8 | binds |  |  |  |  | anti-CD73 antibody clone 3-4 (antibody, V domains shown, also called CD73 #3-4; CR3-4) VH: not shown VL: QSALTQPASVSGSPGQSITISCTGTSSDVGSYNLVSWYQQHPGKAPKLMIYEGSKRPSGVSNRFSGSKSGNTASLTISGLQAEDEADYYCCSYAGSSGWDIGTGTKVTVLG | binding result [1]: binds
